In US8703698B2, “Compositions and methods for treating atherosclerosis” (The University of Chicago, priority 2003, dated 2014):

Tests used:
[1] = system: J774 macrophages; assay: Cholesterol efflux from cholesterol-laden J774 macrophages to apolipoprotein liposomes with 8-bromo-cAMP or methyl-β-cyclodextrin; assay type: cell-based, mouse
Source text: The export process of cholesterol is coupled to the ATP binding cassette transporter (ABCA1) pathway. Lipid efflux to apolipoproteins has been shown previously to be stimulated by treatment of murine macrophages with cAMP analogues (Lin et al. 2002 Biochem Biophys Res. Commun. 290:663-669; Oram et al. 2000 J. Biol. Chem. 275:34508-34511). Also, the expression of ABCA1 is induced by cAMP treatment (Lin et al. 2002 Biochem Biophys Res. Commun. 290:663-669; Oram et al. 2000 J. Biol. Chem. 275:34508-34511). The inventors herein examined the effect of 8-bromo-cAMP (0.3 mM) on cholesterol efflux by liposomes containing various apolipoproteins when incubated with cholesterol-laden J774 macrophages. Such cells were pre-labeled with [^3H]-cholesterol in the presence of Sandoz 58-035, an ACAT inhibitor, to ensure that all of the radiolabeled cholesterol released from the cells was derived from the un-esterified cholesterol pool, and the cells were treated for 12 hours with 8-bromo-cAMP. This was followed by incubation with various acceptors. The fractional release of cellular labeled cholesterol was determined as a function of time.
To investigate whether an apolipoprotein free cholesterol acceptor such as cyclodextrin has the ability to catalyze the removal of cholesterol from macrophages, cholesterol-loaded and labeled J774 cells were incubated with liposomes and methyl-β-cyclodextrin (0.1 mM) (CD).
To examine whether cholesterol export from J774 cells to medium containing liposomes containing 2 μM murine apoA-1, SAA1.1 or SAA2.1 is a cAMP-dependent process, the radio-labeled cholesterol-laden cells were incubated overnight with 8-Br-cAMP (0.3 mM), prior to the addition of liposomes containing 2 μM murine apoA-1, SAA1.1 or SAA2.1 to the culture medium. Cholesterol efflux to the medium was then determined at the indicated time points as described above. Efflux of radioactive label to the medium was calculated as a percentage of total counts in each well.

[2] = molecular target: T1, acyl CoA:cholesterol acyl transferase (Mus musculus, UniProt Q61263); assay: ACAT activity in macrophage post-nuclear homogenates; assay type: biochemical, murine; conditions: macrophage post-nuclear homogenates as enzyme source
T1 construct: host or cells: J774 mouse macrophages, cholesterol-loaded
T1 sequence (Q61263 1-540): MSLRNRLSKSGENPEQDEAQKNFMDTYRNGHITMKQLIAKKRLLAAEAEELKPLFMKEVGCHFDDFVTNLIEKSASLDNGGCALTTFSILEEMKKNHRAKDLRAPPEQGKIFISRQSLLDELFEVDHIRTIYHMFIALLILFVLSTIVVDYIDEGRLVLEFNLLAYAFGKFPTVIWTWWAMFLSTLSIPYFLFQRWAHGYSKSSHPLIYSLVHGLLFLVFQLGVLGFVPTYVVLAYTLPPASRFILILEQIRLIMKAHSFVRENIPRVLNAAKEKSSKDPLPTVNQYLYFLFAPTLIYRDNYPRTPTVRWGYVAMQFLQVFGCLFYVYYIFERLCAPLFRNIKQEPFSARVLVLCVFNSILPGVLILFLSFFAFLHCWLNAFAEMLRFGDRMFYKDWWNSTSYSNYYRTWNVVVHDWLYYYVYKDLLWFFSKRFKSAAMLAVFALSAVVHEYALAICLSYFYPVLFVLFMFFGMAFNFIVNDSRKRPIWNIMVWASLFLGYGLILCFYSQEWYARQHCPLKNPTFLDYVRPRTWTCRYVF
Source text: The in vitro effects of acute phase-HDL (AP-HDL;HDL-SAA) on acyl CoA:cholesterol acyl transferase and cholesterol ester hydrolase activities and on cellular cholesterol export were studied by the inventors using purified enzymes, cell homogenates, and whole cells. […] In contrast, murine SAA1.1 and apoA-1 had no effect. […] Using macrophages preloaded with radio-labeled cholesterol and injected intravenously into either inflamed or un-inflamed mice, it was shown that the inflamed mice, which have high SAA2.1 levels, effluxed cholesterol more rapidly and to a greater extent (6-fold greater) than their un-inflamed counterparts.

[3] = molecular target: T1, acyl CoA:cholesterol acyl transferase; conditions: intact murine macrophages and post-nuclear homogenates; Ely et al. 2001; cited from earlier work
[4] = system: hepatic, macrophage, and pancreatic cholesterol esterase; conditions: Lindhorst 1997; Ely 2001; Tam 2002; cited from earlier work

B1: GFFSFVHEAFQGAGDMWRAYTDMKEANWKNSDKYFHARGNYDAAQRGPGGVWAAEKISD GREAFQEFFGRGHEDTIADQEANRHGRSGKDPNYYRPPGLPDKY (protein, listed as Mus musculis)
chain: GFFSFVHEAFQGAGDMWRAYTDMKEANWKNSDKYFHARGNYDAAQRGPGGVWAAEKISDGREAFQEFFGRGHEDTIADQEANRHGRSGKDPNYYRPPGLPDKY
notes: full length murine serum amyloid A isoform 2.1 purified from acute phase plasma
- increase in the initial rate of cholesterol efflux to liposomes after cAMP pre-treatment versus untreated cells ([1]; 8-bromo-cAMP 0.3 mM, 12 hours, Sandoz 58-035 present): 62.1%
- further increase in cholesterol efflux by cAMP pre-treatment ([1]; cells exposed to liposomes and CD): 45.5%
- increase in the initial rate of cholesterol efflux with CD treatment ([1]; methyl-β-cyclodextrin 0.1 mM plus liposomes): 4 fold
- acyl CoA:cholesterol acyl transferase activity [2]: inhibit acyl CoA:cholesterol acyl transferase activity in a dose-dependent manner
- macrophage ACAT activity [3]: inhibit macrophage acyl CoA:cholesterol acyl transferase (ACAT) activity
- cholesterol esterase activities in vitro [4]: stimulate hepatic, macrophage, and pancreatic cholesterol esterase activities in vitro
